Read-outs that look alike come from different tables or passages of the source. Where no end group is shown, it is not given here. [ ]: non-standard residue; d: D form. The star is where a group is joined. Propanoyl(3-C8F17) = O=C(CCC(F)(F)C(F)(F)C(F)(F)C(F)(F)C(F)(F)C(F)(F)C(F)(F)C(F)(F)F)*; Phe(4-Br) = N[C@@H](Cc1ccc(Br)cc1)C(=O)O; fluorocarbon group = not defined here; Palmitoyl = CCCCCCCCCCCCCCCC(=O)*; acyl group = not defined here; Nle = CCCC[C@H](N)C(=O)O; Aib = CC(C)(N)C(=O)O

Assay [1] deals with T1, wild-type rat apelin receptor-EGFP (rat, UniProt Q9JHG3 1-377, EGFP is fused at the C-terminal (intracellular) end of the receptor. It is not included in the letters.).
T1 sequence: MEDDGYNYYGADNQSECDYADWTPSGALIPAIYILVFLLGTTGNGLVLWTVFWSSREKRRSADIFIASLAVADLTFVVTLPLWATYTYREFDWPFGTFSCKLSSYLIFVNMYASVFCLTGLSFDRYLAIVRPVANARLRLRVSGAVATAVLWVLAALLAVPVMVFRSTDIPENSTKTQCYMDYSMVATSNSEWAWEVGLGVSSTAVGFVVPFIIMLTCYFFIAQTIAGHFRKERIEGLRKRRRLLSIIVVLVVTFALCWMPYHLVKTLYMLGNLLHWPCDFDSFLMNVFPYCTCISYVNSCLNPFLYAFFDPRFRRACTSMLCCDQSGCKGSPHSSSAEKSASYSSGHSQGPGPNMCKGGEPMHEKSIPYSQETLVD
Put plainly: cell-based or functional assay.

Assay [2] addresses T1, wild-type rat apelin receptor-EGFP. Kind of assay: cell-based or functional assay. This is another data set of the same source.
Assay [3] shares this target. Put plainly: competitive radioligand binding vs [125I]-pE13F, membranes of CHO cells expressing rat apelin receptor-EGFP.
Assay [4] has the same target. Described as above. This is another data set of the same source.
The target is the same in assay [5]. Put plainly: cell-based or functional assay. The source holds these as a separate data set.
Assay [6] has the same target. Put plainly: radioligand binding on membrane preparation from CHO cells stably expressing the rat apelin receptor-EGFP.
Assay [7] has the same target. Kind of assay: competitive radioligand binding vs [125I]-pE13F, rat apelin receptor-EGFP in CHO membranes.
The target is the same in assay [8]. Kind of assay: cell-based or functional assay. The source holds these as a separate data set.
Assay [9] has as its target AT1 receptor.
In assay [10] the target is T1, wild-type rat apelin receptor-EGFP. Put plainly: cell-based or functional assay. This is another data set of the same source.
The target is the same in assay [11]. Put plainly: D-scanning; competitive radioligand binding vs [125I]-pE13F, rat apelin receptor-EGFP in CHO membranes.

AT1 receptor, sequence (P30556 whole entry): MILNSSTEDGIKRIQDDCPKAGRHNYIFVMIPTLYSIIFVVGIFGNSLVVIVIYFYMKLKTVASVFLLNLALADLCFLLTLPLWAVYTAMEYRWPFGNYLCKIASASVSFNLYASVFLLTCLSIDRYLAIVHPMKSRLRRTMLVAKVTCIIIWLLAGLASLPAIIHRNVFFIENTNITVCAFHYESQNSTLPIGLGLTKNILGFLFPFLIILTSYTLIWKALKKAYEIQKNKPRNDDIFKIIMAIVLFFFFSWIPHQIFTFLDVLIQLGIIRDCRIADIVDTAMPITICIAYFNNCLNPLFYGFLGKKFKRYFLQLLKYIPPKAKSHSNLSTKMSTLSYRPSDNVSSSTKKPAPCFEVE

With “pE13F (pyroglutamyl form of apelin 13) (peptide)”, in assay [1], the inhibition of forskolin-induced cAMP production IC50 came out at 1 nM.
Molecule pE13(4Br-Phe^13) (peptide) yielded an inhibition of forskolin-induced cAMP production IC50 in assay [1] of 0.1 nM.

B1: JFM V-0196B (peptide)
peptide: {Propanoyl(3-C8F17)}-KFRRQRPRLSHKGPMPF
B1: in assay [2], the ERK1/2 phosphorylation EC50 stood at 0.89 nM, the Inhibition of FSK-induced cAMP production IC50 was found to be 3.13 nM and the Internalization EC50 was 0.41 nM. Moreover, the Ki in assay [3] came to 0.08 nM. The molecule further returned a Ki in assay [4] of 0.21 nM. In assay [5], this molecule yielded an IC50 cAMP inhibition of 3.1 nM and a cAMP production IC50 of 3.1 nM.

B2: pE13F(Nle^11) (peptide)
peptide: XRPRLSHKGPXPF
modifications: pGlu at 1; Nle (norleucine) at 11
On to B2, for which the inhibition of forskolin-induced cAMP production IC50 in assay [5] was 1 nM.

B3: FLUORO-P92 (peptide)
peptide: {fluorocarbon group}-KF[dR]R[dQ]RPR[dL]S[Aib]K[dA]P[Nle]P[Phe(4-Br)]
modifications: reading uncertain; also: fluorocarbon group on the NH2α of Lys 1
Molecule B3 returned a Ki in assay [6] of 0.31 nM.

B4: Ac-R12F (peptide)
peptide: Ac-RPRLSHKGPMPF
For the molecule B4, the inhibition of forskolin-induced cAMP production IC50 in [5] was 2.4 nM. This molecule also showed a Ki in [7] of 1.4 nM.

B5: JFM V-0220B (peptide)
peptide: K(heptadecafluoroundecanoyl)FRRQRPRLSHKGPMPF
In turn, B5 gave a Ki in assay [4] of 0.16 nM. Also, the IC50 cAMP inhibition in assay [5] is 1 nM.

B6: JFM V-0210/1 (peptide)
peptide: KKFRRQRPRLSHKGPMPF
modifications: fluorocarbon (perfluoroalkyl) group on the εNH2 of the added N-terminal linker L-lysine
In the case of B6, the inhibition constant Ki in assay [4] worked out at 0.18 nM. Besides, the IC50 cAMP inhibition in [5] stood at 3.8 nM.

B7: P92 (peptide)
peptide: KFRRQRPRLSXKAPXPF
HELM: PEPTIDE1{[ac].K.F.[dR].R.[dQ].R.P.R.[dL].S.[Aib].K.[dA].P.[Nle].P.[O=C(O)[C@H](Cc1ccc(Br)cc1)N[*:1]]}$$$$V2.0
SMILES: CCCC[C@H](NC(=O)[C@@H]1CCCN1C(=O)[C@@H](C)NC(=O)[C@H](CCCCN)NC(=O)C(C)(C)NC(=O)[C@H](CO)NC(=O)[C@@H](CC(C)C)NC(=O)[C@H](CCCNC(=N)N)NC(=O)[C@@H]1CCCN1C(=O)[C@H](CCCNC(=N)N)NC(=O)[C@@H](CCC(N)=O)NC(=O)[C@H](CCCNC(=N)N)NC(=O)[C@@H](CCCNC(=N)N)NC(=O)[C@H](Cc1ccccc1)NC(=O)[C@H](CCCCN)NC(C)=O)C(=O)N1CCC[C@H]1C(=O)N[C@@H](Cc1ccc(Br)cc1)C(=O)O
B7: the Inhibition of FSK-induced cAMP production IC50 in assay [2] came out at 0.56 nM. In assay [3], this molecule showed a Ki of 0.09 nM. Moreover, in assay [4], the IC50 was 0.21 nM and the inhibition constant Ki worked out at 0.2 nM. In [5], the ERK1/2 phosphorylation EC50 is 3.42 nM, the Internalization EC50 came out at 0.38 nM, the cAMP production IC50 is 0.56 nM and the inhibition of forskolin-induced cAMP production IC50 came to 0.2 nM. The molecule also displayed a cAMP production IC50 in [8] of 0.62 nM. This molecule gave a selectivity factor towards the AT1 receptor with respect to the apelin receptor in assay [9] of 100 fold.

B8: P95 (peptide)
peptide: Ac-KFRR[dQ]RPR[dL]S[Aib]K[dA]P[Nle]P[Phe(4-Br)]
B8: the concentration for half-maximal inhibition (IC50) in assay [4] worked out at 0.03 nM. The cAMP production IC50 in assay [8] came out at 0.34 nM. In addition, the factor of improved affinity as compared to K17F in assay [7] came out at 10 fold.

B9: P26 (peptide)
peptide: RPRLSXKAPXPF
HELM: PEPTIDE1{[ac].R.P.R.[dL].S.[Aib].K.[dA].P.[Nle].P.[O=C(O)[C@H](Cc1ccc(Br)cc1)N[*:1]]}$$$$V2.0
SMILES: CCCC[C@H](NC(=O)[C@@H]1CCCN1C(=O)[C@@H](C)NC(=O)[C@H](CCCCN)NC(=O)C(C)(C)NC(=O)[C@H](CO)NC(=O)[C@@H](CC(C)C)NC(=O)[C@H](CCCNC(=N)N)NC(=O)[C@@H]1CCCN1C(=O)[C@H](CCCNC(=N)N)NC(C)=O)C(=O)N1CCC[C@H]1C(=O)N[C@@H](Cc1ccc(Br)cc1)C(=O)O
For B9, in assay [2], the Inhibition of FSK-induced cAMP production IC50 was 2.22 nM and the Internalization EC50 was 2.11 nM. For the same molecule, the Ki in assay [3] is 2.11 nM. In [5], the ERK1/2 phosphorylation EC50 stood at 72.1 nM, the Internalization EC50 was 2.1 nM, the cAMP production IC50 worked out at 2.22 nM and the inhibition of forskolin-induced cAMP production IC50 was 4.4 nM. In assay [10], this molecule registered an ERK1/2 phosphorylation EC50 of 71.3 nM and an ERK1/2 phosphorylation EC50, fold against K17F of 18 fold.

B10: JFM V-0196A (peptide)
peptide: Palmitoyl-KFRRQRPRLSHKGPMPF
For B10, in assay [4], the Ki turned out to be 0.76 nM. Also, in [5], the IC50 cAMP inhibition is 3.9 nM and the cAMP production IC50 amounted to 3.9 nM.

B11: LIPO-P92 (peptide)
peptide: {acyl group}-KF[dR]R[dQ]RPR[dL]S[Aib]K[dA]P[Nle]P[Phe(4-Br)]
modifications: reading uncertain; also: acyl group on the NH2α of Lys 1
For B11, in [6], the Ki was determined as 0.25 nM and the factor of decreased affinity as compared to P92 lay within 2 to 3 fold.

B12: JFM V-0220A (peptide)
peptide: K(Palmitoyl)FRRQRPRLSHKGPMPF
In the case of B12, the Ki in assay [4] was 1.43 nM. In [5], the IC50 cAMP inhibition was 2 nM.

B13: pE13F(D-Ala^9) (peptide)
peptide: XRPRLSHKAPMPF
modifications: pGlu at 1; D-Ala at 9
Molecule B13 returned an inhibition of forskolin-induced cAMP production IC50 in assay [5] of 43 nM. In [11], the Ki came to 4.3 nM.

B14: JFM V-0210/2 (peptide)
peptide: KKFRRQRPRLSHKGPMPF
modifications: acyl group RC(O)- on the εNH2 of the added N-terminal linker L-lysine
In the case of B14, in assay [4], the Ki is 1.33 nM. In assay [5], this molecule registered an IC50 cAMP inhibition of 1.4 nM.

B15: P96 (peptide)
peptide: Ac-KFRRQRPR[dL]S[Aib]K[dA]P[Nle]P[Phe(4-Br)]
modifications: not fully specified (residue 3)
In turn, B15 had an IC50 in assay [4] of 0.11 nM. Also, the cAMP production IC50 in assay [8] was 0.45 nM.

B16: pE13F(Aib^7) (peptide)
peptide: XRPRLSXKGPMPF
modifications: pGlu at 1; Aib (α-aminoisobutyric acid) at 7
For B16, the inhibition of forskolin-induced cAMP production IC50 in assay [5] turned out to be 1.2 nM. Also, the Ki in [7] was determined as 2.6 nM.

The values above are taken from patent publication US20170355734A1 (INSERM INSTITUT NATIONAL DE LA SANT ET DE LA RECHERCHE M …, published 2017).
